Reference: IntAct's records for PubMed 21399639

Molecular target: T1, ikkb_human IKBKB (UniProt O14920)
T1 sequence: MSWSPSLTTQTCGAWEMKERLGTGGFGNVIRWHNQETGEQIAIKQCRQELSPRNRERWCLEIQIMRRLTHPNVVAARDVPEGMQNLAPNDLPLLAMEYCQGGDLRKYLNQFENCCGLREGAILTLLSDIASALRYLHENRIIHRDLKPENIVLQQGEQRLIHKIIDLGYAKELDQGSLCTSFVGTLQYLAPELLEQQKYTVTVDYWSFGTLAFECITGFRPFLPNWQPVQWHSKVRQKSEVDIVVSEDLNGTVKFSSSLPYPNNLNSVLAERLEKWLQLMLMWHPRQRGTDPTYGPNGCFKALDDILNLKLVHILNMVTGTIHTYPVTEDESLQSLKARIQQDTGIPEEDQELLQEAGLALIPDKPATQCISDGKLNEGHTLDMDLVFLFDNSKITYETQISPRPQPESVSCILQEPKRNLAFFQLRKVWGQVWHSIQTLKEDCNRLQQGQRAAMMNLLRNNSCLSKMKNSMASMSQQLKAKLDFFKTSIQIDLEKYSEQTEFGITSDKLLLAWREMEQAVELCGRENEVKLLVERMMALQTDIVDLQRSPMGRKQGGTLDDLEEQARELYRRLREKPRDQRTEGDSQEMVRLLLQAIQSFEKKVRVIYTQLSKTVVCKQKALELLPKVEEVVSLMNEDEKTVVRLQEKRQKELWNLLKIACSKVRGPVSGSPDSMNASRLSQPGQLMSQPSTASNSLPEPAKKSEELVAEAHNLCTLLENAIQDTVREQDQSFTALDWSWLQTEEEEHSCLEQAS

effect of a mutation on the interaction: disrupting interaction
Substance: Small ribosomal subunit protein uS3 (Homo sapiens) (from UniProt P23396) S209A
